Data published in patent publication US20070154994.

Target: T1, TGF-β receptor I-K coil fusion protein (kinase domain)
T1 chain: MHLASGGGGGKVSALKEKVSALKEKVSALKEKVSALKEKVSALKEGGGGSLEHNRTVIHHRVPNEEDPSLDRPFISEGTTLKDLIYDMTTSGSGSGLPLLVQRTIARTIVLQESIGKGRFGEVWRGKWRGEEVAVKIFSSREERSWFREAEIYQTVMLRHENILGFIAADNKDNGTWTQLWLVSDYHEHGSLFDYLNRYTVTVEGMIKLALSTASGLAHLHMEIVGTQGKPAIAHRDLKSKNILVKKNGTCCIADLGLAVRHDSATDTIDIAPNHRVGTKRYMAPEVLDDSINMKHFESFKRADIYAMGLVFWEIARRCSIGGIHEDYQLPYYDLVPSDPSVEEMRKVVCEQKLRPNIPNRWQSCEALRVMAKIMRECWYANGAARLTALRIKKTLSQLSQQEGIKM

B1: TGF-β receptor II-E coil fusion protein (kinase domain) (protein)
chain: MHLASGGGGGEVSALEKEVSALEKEVSALEKEVSALEKEVSALEKGGGGSLERVNRQQKLSSTWETGKTRKLMEFSEHCAIILEDDRSDISSTCANNINHNTELLPIELDTLVGKGRFAEVYKAKLKQNTSEQFETVAVKIFPYEEYASWKTEKDIFSDINLKHENILQFLTAEERKTELGKQYWLITAFHAKGNLQEYLTRHVISWEDLRKLGSSLARGIAHLHSDHTPCGRPKMPIVHRDLKSSNILVKNDLTCCLCDFGLSLRLDPTLSVDDLANSGQVGTARYMAPEVLESRMNLENAESFKQTDVYSMALVLWEMTSRCNAVGEVKDYEPPFGSKVREHPCVESMKDNVLRDRGRPEIPSFWLNHQGIQMVCETLTECWDHDPEARLTAQCVAERFSELEHLDRLSGRSCSEEKIPEDGSLNTTK
autophosphorylation with P33-gamma ATP, SDS-PAGE and phosphorimaging: Lane 4 corresponding to the heterodimer shows the most autophosphorylation
